Where two headings read alike, the source gives them in different places. *1 amine or outer side, *2 acyl side, *3 side chain or, on linkers, in order; H or OH if unused. Bridges are numbered along the chain shown (N, C = ends). Primed or numbered codes have the meaning given here. Side-chain parts run from the residue outwards. [ ]: non-standard residue; d: D form. Phe(4-OMe)(3) = O-methyl-L-tyrosine (4-methoxy-L-phenylalanine), COc1ccc(C[C@H](N[*:1])C(=O)[*:2])cc1; Phe(4-OMe) = 4-methoxy-L-phenylalanine (O-methyl-L-tyrosine), COc1ccc(C[C@H](N[*:1])C(=O)[*:2])cc1; Phe(4-OMe)(5) = O-methyl-L-tyrosine (4-methoxy-Phe), COc1ccc(C[C@H](N[*:1])C(=O)[*:2])cc1; Phe(4-OMe)(4) = O-methyl-L-tyrosine, COc1ccc(C[C@H](N[*:1])C(=O)[*:2])cc1; Tyr(Ph) = N[C@@H](Cc1ccc(Oc2ccccc2)cc1)C(=O)O; 1Nal = N[C@@H](Cc1cccc2ccccc12)C(=O)O; 2Nal = N[C@@H](Cc1ccc2ccccc2c1)C(=O)O; AEF = NCCOc1ccc(C[C@H](N)C(=O)O)cc1; Cha = N[C@@H](CC1CCCCC1)C(=O)O; αMeK = C[C@](N)(CCCCN)C(=O)O; Orn = NCCC[C@H](N)C(=O)O; PEG2′ = not defined here; Abu = CC[C@H](N)C(=O)O; Dap = NC[C@H](N)C(=O)O
Columns and labels:
IL23R_huFC [1] = target: T1, IL23R_huFC (human, UniProt Q5VWK5 24-353); assay: human ELISA vs IL-23
T1 sequence (looked up): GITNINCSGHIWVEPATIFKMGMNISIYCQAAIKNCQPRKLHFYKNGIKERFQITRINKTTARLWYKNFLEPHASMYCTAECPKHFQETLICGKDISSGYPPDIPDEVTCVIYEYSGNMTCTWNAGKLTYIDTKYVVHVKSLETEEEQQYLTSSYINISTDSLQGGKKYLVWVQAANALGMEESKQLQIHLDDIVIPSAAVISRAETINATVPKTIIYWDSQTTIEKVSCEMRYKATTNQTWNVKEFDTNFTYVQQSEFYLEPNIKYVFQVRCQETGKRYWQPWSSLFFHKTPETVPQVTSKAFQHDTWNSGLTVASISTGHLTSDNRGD

IL23R_huFC [2] = target: T1, IL23R_huFC; assay: human ELISA vs IL-23; remark: listed apart in the source
Rat IL-23R_huFC = Rat IL-23R_huFC (rat); assay: rat ELISA vs IL-23
IL23R_huFC [3] = target: T1, IL23R_huFC; assay: human ELISA vs IL-23; remark: listed apart in the source
[4] = target: T2, IL-23R on human cells (IL-23R-expressing DB cells; human NK cells) (human, UniProt Q5VWK5 24-629); assay: cell-based or functional assay
T2 sequence (looked up): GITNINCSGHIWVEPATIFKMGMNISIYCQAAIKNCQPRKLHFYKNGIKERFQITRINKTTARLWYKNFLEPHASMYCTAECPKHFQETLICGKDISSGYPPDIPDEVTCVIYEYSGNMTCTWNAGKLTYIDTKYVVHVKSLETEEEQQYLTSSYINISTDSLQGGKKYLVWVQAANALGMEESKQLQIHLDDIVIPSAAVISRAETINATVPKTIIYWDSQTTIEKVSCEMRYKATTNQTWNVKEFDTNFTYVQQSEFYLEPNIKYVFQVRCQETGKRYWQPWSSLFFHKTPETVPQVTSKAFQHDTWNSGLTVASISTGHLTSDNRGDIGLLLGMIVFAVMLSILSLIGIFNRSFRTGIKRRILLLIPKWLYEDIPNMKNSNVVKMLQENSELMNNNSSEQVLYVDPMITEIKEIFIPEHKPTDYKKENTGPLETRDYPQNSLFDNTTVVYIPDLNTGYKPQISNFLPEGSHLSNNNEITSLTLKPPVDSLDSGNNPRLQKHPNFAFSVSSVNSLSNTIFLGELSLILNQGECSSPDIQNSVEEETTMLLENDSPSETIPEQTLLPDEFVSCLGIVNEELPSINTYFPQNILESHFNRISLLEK

B1: Ac-Cyclo-[[Abu]-QTWQC]-[Phe(4-OMe)]-W-[α-MeLys]-[Lys(Ac)]-NGE-NH2 (peptide)
peptide: Ac-[Abu]QTWQC[Phe(4-OMe)]W[αMeK]K(Ac)NGE-NH2
modifications: thioether 1-6
With B1 the IC50 (IL23R_huFC [1]) was 100 to 1000 nM.

B2: Ac-Cyclo-[[Abu]-QTWQC]-[Phe[4-(2-aminoethoxy)]]-[2-Nal][α-MeLys]-[Dap(PEG2-Ac)]NG-NH2 (peptide)
peptide: Ac-[Abu]QTWQC[AEF][2Nal][αMeK][Dap]([PEG2′-Ac])NG-NH2
modifications: thioether 1-6
B2 was tested, and the IC50 (IL23R_huFC [2]) was 10 to 25 nM.

B3: Ac-Cyclo-[[Abu]-QT-[1-Nal]-QC]-[Phe(4-OMe)]-[2-Nal]-[α-MeLys]-[Lys(Ac)]-NG-NH2 (peptide)
peptide: Ac-[Abu]QT[1Nal]QC[Phe(4-OMe)(4)][2Nal][αMeK]K(Ac)NG-NH2
modifications: thioether 1-6
Work on B3 yielded an IC50 (IL23R_huFC [1]) of 100 to 1000 nM.

B4: Ac-Cyclo-[[Abu]-QTWQC]-[2-Nal]-[2-Nal]-[α-MeLys]-[Lys(Ac)]-NG-NH2 (peptide)
peptide: Ac-[Abu]QTWQC[2Nal][2Nal][αMeK]K(Ac)NG-NH2
modifications: thioether 1-6
Work on B4 yielded an IC50 (Rat IL-23R_huFC) of 25 to 100 nM and an IC50 (IL23R_huFC [3]) of 25 to 100 nM.

B5: Ac-Cyclo-[[Abu]-QTWQC]-[Phe[4-(2-aminoethoxy)]]-W-[Orn]-[Dap]-NG-NH2 (peptide)
peptide: Ac-[Abu]QTWQC[AEF]W[Orn][Dap]NG-NH2
modifications: thioether 1-6
Binder B5 has an IC50 (IL23R_huFC [1]) of 100 to 1000 nM.

B6: Ac-Cyclo-[[Abu]-QT-[2-Nal]-QC]-[Phe(4-OMe)]-[2-Nal]-[α-MeLys]-[Lys(Ac)]-NG-NH2 (peptide)
peptide: Ac-[Abu]QT[2Nal]QC[Phe(4-OMe)(4)][2Nal][αMeK]K(Ac)NG-NH2
modifications: thioether 1-6
B6 gave an IC50 (IL23R_huFC [1]) of 100 to 1000 nM.

B7: Ac-Cyclo-[[Abu]-QT-[1,2,3,4-tetrahydro-norharman]-QC]Phe[4-(2-aminoethoxy)]]-[2-Nal]-[α-MeLys]-ENG-NH2 (peptide)
peptide: XQTXQCFXKENG
modifications: as bracketed in name; thioether cyclo
In the case of B7, the IC50 (IL23R_huFC [1]) is reported as 100 to 1000 nM.

B8: Ac-Cyclo-[[Abu]-QTWQC]-[Phe(4-Phenoxy)]-[2-Nal][α-MeLys]-[Lys(Ac)]-NG-NH2 (peptide)
peptide: Ac-[Abu]QTWQC[Tyr(Ph)][2Nal][αMeK]K(Ac)NG-NH2
modifications: thioether 1-6
B8 was tested, and the IC50 (IL23R_huFC [1]) was 100 to 1000 nM.

B9: Ac-Cyclo-[[Abu]-QTWQC]-[Phe[4-(2-aminoethoxy)]]-W-[Orn]-[Dap(Ac)]-NG-NH2 (peptide)
peptide: Ac-[Abu]QTWQC[AEF]W[Orn][Dap](Ac)NG-NH2
modifications: thioether 1-6
With B9 the IC50 (IL23R_huFC [1]) was 100 to 1000 nM.

B10: Ac-Cyclo-[[Abu]-STWQC]-[Phe[4-(2-aminoethoxy)]]-[2-Nal]-[α-MeLys]-KNGGE-NH2 (peptide)
peptide: Ac-[Abu]STWQC[AEF][2Nal][αMeK]KNGGE-NH2
modifications: thioether 1-6
In the case of B10, the IC50 (IL23R_huFC [1]) is reported as 100 to 1000 nM.

B11: Ac-Cyclo-[[Abu]-QTWQC]-[Phe(4-OMe)]-[2-Nal]-[Cha]-[Lys(Ac)]-NG-NH2 (peptide)
peptide: Ac-[Abu]QTWQC[Phe(4-OMe)][2Nal][Cha]K(Ac)NG-NH2
modifications: thioether 1-6
With B11 the “pStat3 HTRF IC50” value [4] was < 10 nM, the IC50 (Rat IL-23R_huFC) was 25 to 100 nM and the IC50 (IL23R_huFC [3]) was 25 to 100 nM.

B12: Ac-Cyclo-[[Abu]-QTWQC]-[Phe(4-OMe)]-[2-Nal]-[Orn]-[Lys(Ac)]-NG-NH2 (peptide)
peptide: XQTWQCFXXKNG
modifications: as bracketed in name; thioether cyclo
Binder B12 has an IC50 (IL23R_huFC [1]) of 100 to 1000 nM.

B13: Ac-Cyclo-[[Abu]-QTWQC]-[Phe[4-(2-aminoethoxy)]]-[2-Nal]-[Orn]-[Lys(Ac)]-NG-NH2 (peptide)
peptide: XQTWQCFXXKNG
modifications: as bracketed in name; thioether cyclo
With B13 the IC50 (IL23R_huFC [2]) was 10 to 25 nM.

B14: Ac-Cyclo-[[Abu]-DapTWQC]-[Phe[4-(2-aminoethoxy)]]-[Phe[4-(2-aminoethoxy)]]-[α-MeLys]-[Lys(Ac)]-NG-NH2 (peptide)
peptide: Ac-[Abu][Dap]TWQC[AEF][AEF][αMeK]K(Ac)NG-NH2
modifications: thioether 1-6
With B14 the IC50 (IL23R_huFC [1]) was 100 to 1000 nM.

B15: Ac-Cyclo-[[Abu]-QTWQC]-[Phe(4-OMe)]-[2-Nal][α-MeLys]-[Lys(Ac)]-NGE-NH2 (peptide)
peptide: Ac-[Abu]QTWQC[Phe(4-OMe)(3)][2Nal][αMeK]K(Ac)NGE-NH2
modifications: thioether 1-6
With B15 the “pStat3 HTRF IC50” value [4] was < 10 nM, the IC50 (Rat IL-23R_huFC) was 25 to 100 nM and the IC50 (IL23R_huFC [3]) was 25 to 100 nM.

B16: Ac-Cyclo-[[Abu]-STWQC]-[Phe(4-OMe)]-[2-Nal][α-MeLys]-[Lys(Ac)]-NGE-NH2 (peptide)
peptide: Ac-[Abu]STWQC[Phe(4-OMe)(5)][2Nal][αMeK]K(Ac)NGE-NH2
modifications: thioether 1-6
In the case of B16, the IC50 (Rat IL-23R_huFC) is reported as 25 to 100 nM and the IC50 (IL23R_huFC [3]) is reported as 25 to 100 nM.

B17: Ac-Cyclo-[[Abu]-QTWQC]-[2-Nal]-[2-Nal]-[α-MeLys]-ENG-NH2 (peptide)
peptide: Ac-[Abu]QTWQC[2Nal][2Nal][αMeK]ENG-NH2
modifications: thioether 1-6
B17 was tested, and the IC50 (Rat IL-23R_huFC) was 25 to 100 nM and the IC50 (IL23R_huFC [3]) was 25 to 100 nM.

— patent US20190300590A1 (PROTAGONIST THERAPEUTICS, published 2019)
